Laboratory results: publication PMC7502447, “Characterization and functional analysis of two novel thermotolerant α-L-arabinofuranosidases belonging to glycoside hydrolase family 51 from Thielavia terrestris and family 62 from Eupenicillium parvum” (Applied Microbiology and Biotechnology, 2020)

Substrate: O=[N+]([O-])c1ccc(O[C@@H]2O[C@@H](CO)[C@H](O)[C@H]2O)cc1
Assay: purified protein
Type: biochemical, Thermothielavioides terrestris
Details: standard conditions, sodium acetate buffer, optimum pH 5.0, 70 °C

B1: TtABF51A (Thermothielavioides terrestris NRRL 8126) (protein)
chain: AVTLSVAKSGGNATSPYMYGIMFEDISHSGDGGLYAELIQNRAFQNGTLDAWSAVGGATLALDTSTPLSQALPRSVKVTGGQHTAGLKNSGFWGFDVKKSKKYTGSFYSYGEYSGRFTVSLVSNTTSEIFATTTVKSKSVAGRWTQHTFELRPTKDAPDISNSFVLEYKPTPHTELKFNLISLFPPTYKNRANGMRPELMEKLKELNPTYIRCPGGNNVEGNYAGNYWNWSATVGPLKDRPGRPGTWGYYNTDGLGLVEYMHWAEDLGMDVVLAVPAGLYLDGEVVSEADLAPFVQDALNELEFLMGDVSTPYGALRAKLGYPKPWKIKFVEIGNEDNLWGGLDSYKGYRFRMFYDAIKAKYPDIFIFSSTAEYMYKQSGRDYHEYTRPDYFVSQFGMFDNWTAGNPIMIGEFASIQNNTGKLEDTDWNAPKNPWSTWIGSVAEAVFLLGAERNSDRVWGVSFAPLLQNLNSYQWTPDLISFTADPADTTVSVSYPILSLFAKHPLTHTLPATAANGTSFGPAYWVAGRNDAAGTYLLKAAVYNSTGGAEVPFRVGFDGLSRGAPATLTVLTAPGGPFAHNTPANKNAVKTAVTQLRAGEGGVLEFSLPDLSVAVLEAKW
notes: full length 640 aa; predicted 20-aa signal peptide removed; C-terminal 6xHis; predicted N-terminal CBM4_9 kept; expressed in Trichoderma reesei D-86271
Question: With B1 as the protein, how does the Km read?
Answer: 300 ± 20 µM

Question: And the Vmax?
Answer: 108 µmol/min/mg

Question: What about the kcat of the same protein?
Answer: 123 ± 2.91 s⁻¹
